Measurements taken from US9061070B2, “Treating stroke and other diseases without inhibiting N-type calcium channels” (NoNO, Inc., priority 2007, dated 2015).

Target: N-type calcium channels (Mus musculus, UniProt O55017)
Experiment: Whole-cell patch clamp recordings of calcium currents in dorsal root ganglion neurons
Assay type: cell-based, Swiss mice
Conditions: 100 μM; FIG. 5A

N-type calcium channels, sequence (O55017 whole entry): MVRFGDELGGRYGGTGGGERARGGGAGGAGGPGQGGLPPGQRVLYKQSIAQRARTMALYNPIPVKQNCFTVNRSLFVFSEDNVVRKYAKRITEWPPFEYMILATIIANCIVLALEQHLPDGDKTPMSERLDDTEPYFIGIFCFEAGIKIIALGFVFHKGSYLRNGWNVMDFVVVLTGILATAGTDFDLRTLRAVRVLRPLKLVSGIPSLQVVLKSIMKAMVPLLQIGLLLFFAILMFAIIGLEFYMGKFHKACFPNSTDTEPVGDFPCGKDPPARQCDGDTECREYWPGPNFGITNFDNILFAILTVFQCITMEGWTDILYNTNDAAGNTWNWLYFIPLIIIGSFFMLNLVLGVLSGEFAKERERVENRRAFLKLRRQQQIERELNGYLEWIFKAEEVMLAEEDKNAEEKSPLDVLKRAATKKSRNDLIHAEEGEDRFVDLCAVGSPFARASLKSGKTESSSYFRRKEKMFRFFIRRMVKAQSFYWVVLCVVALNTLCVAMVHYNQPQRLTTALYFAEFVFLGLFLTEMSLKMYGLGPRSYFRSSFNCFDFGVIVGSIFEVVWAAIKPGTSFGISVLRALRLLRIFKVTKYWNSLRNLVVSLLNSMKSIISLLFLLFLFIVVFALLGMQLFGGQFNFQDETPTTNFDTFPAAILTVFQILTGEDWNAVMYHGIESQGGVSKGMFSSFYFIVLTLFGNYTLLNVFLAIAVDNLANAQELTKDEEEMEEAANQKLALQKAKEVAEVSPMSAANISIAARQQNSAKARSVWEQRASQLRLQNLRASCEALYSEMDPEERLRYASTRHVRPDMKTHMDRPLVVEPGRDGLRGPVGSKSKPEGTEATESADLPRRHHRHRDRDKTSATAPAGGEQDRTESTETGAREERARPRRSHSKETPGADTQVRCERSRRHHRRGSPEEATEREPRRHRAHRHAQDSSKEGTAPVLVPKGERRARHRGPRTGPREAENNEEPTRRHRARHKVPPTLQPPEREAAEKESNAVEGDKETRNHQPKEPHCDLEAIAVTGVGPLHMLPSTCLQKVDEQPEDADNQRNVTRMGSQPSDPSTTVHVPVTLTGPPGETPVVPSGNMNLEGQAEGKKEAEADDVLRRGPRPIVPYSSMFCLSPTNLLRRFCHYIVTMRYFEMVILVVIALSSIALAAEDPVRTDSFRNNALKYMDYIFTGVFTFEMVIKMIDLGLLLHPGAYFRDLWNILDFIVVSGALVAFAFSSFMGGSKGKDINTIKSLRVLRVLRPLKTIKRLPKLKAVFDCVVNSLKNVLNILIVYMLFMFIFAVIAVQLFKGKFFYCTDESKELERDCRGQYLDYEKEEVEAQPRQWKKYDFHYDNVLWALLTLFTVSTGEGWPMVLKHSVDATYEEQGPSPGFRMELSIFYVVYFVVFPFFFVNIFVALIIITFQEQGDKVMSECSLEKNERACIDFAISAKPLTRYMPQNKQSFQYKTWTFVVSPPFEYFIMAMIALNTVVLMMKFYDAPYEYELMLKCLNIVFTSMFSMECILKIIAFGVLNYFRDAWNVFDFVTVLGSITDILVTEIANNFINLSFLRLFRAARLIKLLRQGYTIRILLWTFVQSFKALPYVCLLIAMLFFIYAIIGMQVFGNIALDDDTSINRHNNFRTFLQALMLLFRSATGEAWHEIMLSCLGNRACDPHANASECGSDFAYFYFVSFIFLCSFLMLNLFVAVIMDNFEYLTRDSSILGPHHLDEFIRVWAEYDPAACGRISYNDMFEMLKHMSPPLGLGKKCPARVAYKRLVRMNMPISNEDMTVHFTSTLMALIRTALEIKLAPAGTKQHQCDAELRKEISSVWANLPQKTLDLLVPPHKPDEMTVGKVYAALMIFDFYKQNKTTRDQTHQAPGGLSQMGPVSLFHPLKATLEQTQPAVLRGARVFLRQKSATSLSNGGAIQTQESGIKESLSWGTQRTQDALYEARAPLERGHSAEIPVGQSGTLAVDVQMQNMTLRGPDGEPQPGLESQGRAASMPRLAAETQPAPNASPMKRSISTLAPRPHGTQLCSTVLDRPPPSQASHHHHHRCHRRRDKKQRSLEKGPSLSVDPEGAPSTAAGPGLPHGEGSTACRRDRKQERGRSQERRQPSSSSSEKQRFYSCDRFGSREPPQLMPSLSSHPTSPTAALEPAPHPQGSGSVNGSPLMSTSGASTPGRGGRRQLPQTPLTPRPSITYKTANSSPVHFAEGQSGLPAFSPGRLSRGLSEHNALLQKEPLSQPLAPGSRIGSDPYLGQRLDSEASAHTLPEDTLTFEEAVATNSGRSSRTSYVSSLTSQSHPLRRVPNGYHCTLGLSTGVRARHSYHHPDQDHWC
N-type calcium channels, sequence (O08532 25-956 partner limits assumed): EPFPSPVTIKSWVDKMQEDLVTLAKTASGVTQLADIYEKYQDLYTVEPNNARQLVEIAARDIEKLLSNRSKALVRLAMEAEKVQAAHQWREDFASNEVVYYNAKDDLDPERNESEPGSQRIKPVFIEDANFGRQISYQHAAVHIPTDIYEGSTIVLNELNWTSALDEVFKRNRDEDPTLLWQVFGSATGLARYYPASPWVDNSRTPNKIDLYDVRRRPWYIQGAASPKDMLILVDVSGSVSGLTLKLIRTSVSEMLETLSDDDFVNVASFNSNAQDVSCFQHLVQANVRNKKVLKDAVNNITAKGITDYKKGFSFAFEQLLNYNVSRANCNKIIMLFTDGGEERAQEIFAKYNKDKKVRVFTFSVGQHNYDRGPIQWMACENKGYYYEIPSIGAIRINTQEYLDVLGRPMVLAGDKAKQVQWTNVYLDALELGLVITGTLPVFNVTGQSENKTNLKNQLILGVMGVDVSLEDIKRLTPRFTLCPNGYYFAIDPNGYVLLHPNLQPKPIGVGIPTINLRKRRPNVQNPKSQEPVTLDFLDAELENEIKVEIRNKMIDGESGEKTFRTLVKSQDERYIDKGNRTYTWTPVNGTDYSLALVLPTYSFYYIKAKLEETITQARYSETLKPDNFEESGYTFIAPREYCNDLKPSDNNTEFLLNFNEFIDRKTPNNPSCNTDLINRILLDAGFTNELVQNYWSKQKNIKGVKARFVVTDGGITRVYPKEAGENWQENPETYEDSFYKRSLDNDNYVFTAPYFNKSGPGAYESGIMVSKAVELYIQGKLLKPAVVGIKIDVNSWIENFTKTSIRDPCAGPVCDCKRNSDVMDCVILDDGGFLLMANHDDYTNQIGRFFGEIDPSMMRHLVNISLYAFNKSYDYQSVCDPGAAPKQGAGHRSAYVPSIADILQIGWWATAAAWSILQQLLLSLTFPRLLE
N-type calcium channels, sequence (O08532 957-1103 partner limits assumed): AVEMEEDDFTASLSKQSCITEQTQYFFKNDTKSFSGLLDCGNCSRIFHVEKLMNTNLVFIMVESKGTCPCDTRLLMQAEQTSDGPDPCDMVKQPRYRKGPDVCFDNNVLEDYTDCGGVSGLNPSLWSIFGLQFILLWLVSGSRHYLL
N-type calcium channels, sequence (P54285 whole entry partner): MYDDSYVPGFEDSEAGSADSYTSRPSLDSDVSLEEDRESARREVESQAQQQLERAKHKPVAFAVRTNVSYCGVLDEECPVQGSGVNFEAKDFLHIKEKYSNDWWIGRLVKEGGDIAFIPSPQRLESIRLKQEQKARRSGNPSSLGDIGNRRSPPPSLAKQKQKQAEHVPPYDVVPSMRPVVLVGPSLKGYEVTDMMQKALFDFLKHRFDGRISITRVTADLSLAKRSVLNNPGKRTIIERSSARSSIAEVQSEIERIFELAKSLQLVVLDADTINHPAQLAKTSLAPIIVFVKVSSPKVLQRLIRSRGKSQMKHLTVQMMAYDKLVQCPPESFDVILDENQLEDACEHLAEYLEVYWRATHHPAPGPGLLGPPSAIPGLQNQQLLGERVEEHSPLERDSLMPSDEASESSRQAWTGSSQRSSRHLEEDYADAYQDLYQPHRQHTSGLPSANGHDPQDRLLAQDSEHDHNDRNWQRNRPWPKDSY

Sequence: YGRKKRRQRRRKLSSIESDV [Tat-NR2B9c, reference compound]
- additional inhibition once N-channels are blocked by omega conotoxin (1 μM): no additional inhibition
